Laboratory results from US20250115655A1, “PHARMACEUTICALS AND DEVICES FOR THE COVALENT IMMOBILIZATION TO THE EXTRACELLULAR MATRIX BY TRANSGLUTAMINASE” (JULIUS-MAXIMILIANS-UNIVERSITÄT WÜRZBURG, priority 2017, published 2025).
“Also recorded” adds a separate entry of the source.

Experiments:
[1] = biological target: T1, Factor XIIIa (Homo sapiens, UniProt P00488); test: FXIIIa-mediated coupling of IGF-I to linker containing the glutamine substrate sequence (SDS-PAGE, western blot, HPLC kinetics); assay type: biochemical
T1 construct: purchased Fibrogammin®
T1 sequence (P00488 39-732 limits assumed): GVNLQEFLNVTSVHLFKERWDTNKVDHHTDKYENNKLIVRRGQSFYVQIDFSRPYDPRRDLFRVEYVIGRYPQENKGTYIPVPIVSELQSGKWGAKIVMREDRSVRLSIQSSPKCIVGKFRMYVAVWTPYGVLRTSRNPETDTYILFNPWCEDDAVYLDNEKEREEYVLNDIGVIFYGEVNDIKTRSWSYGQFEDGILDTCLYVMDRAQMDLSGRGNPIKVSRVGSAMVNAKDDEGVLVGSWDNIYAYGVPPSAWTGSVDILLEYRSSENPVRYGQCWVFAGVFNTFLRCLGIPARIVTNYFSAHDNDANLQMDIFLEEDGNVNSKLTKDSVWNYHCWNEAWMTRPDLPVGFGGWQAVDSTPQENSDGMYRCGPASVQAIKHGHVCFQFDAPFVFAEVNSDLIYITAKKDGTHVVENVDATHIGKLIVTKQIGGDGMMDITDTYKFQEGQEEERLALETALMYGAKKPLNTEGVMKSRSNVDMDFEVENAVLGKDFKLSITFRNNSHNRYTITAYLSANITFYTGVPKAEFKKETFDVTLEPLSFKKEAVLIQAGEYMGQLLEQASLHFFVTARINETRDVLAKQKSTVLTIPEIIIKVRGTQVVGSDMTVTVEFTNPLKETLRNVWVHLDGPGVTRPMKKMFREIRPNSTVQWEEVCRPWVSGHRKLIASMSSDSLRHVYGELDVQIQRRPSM
Experimental: The specificity and efficiency of the reaction was analyzed and compared to the isolated D domain (SEQ ID NO: 1) using a linker containing the glutamine substrate sequence derived from α-2 plasmin inhibitor and analyzed by SDS-PAGE and by western blotting using a monoclonal anti-IGF-I antibody (FIG. 4A). The transamidation was carried out at 37° C. for 5 min in Tris buffer (20 mM Tris-HCL, 150 mM sodium chloride, pH 7.6) with 0.1 M calcium chloride in presence of factor XIIIa (Fibrogammin®, activated with 0.02 U/ml thrombin). The resulting conjugate was analyzed by MALDI-MS and the site-specific conjugation confirmed. […] FIGS. 4A-4B: (4A) SDS PAGE and immunoblotting of human IGF-I after incubation with the glutamine substrate peptide modelled from the N-terminus of alpha-2 plasmin inhibitor (SEQ ID NO: 11) attached to a protease cleavable linker (PCL) in absence and presence of FXIIIa. (4B) HPLC analysis of IGF-I coupling kinetics mediated by […].

[2] = system: fibronectin; test: Immobilization of native IGF-I on fibroblast derived isolated ECM and soluble fibronectin in presence of Factor XIIIa; assay type: biochemical; conditions: 37° C., 10 min, antibody staining (FIG. 6A)
Experimental: (§1) To test this strategy, native IGF-I was immobilized onto fibroblast derived, isolated extracellular matrix in presence of Factor XIIIa (FIGS. 6A-6B). […] The transamidation reaction was carried out at 37° C. for 10 min in Tris buffer at pH 7.6 and is suitable for performance under physiological conditions. […] Bioactivity of immobilized IGF-I was confirmed by promoting cell proliferation of mouse myoblast cells (FIGS. 7A-7B).
FIGS. 6A-6B: (6A) Confocal laser scanning microscopy images of IGF-I immobilized on isolated ECM. The immobilized IGF-I was visualized with a monoclonal IGF-I antibody (green) und co-localized with fibronectin (red). (6B) Western Blot of human IGF-I after incubation with fibronectin in presence (lane 1) and absence (lane 2) of factor XIIIa with unreacted IGF-I as control (lane 3).

[3] = system: C2C12 myoblasts; test: Bioactivity of ECM-immobilized IGF-I: C2C12 myoblast proliferation (WST-1); assay type: cell-based; conditions: mouse myoblast cells, 48 hours
Experimental: as §1
FIGS. 7A-7B: Bioactivity of ECM-immobilized IGF-I. (7A) Native IGF-I was coupled to ECM in presence/absence of factor XIIIa, followed by seeding of C2C12 myoblasts on this naturally derived matrix and cell proliferation was measured after 48 hours incubation using WST-1 (Data are shown as mean±STDEV, n=3; ** p<0.01). (7B) The cells were fixed, stained with actin (green) and DAPI (cell nuclei, blue) and ECM-immobilized IGF-I was visualized using a monoclonal IGF-I antibody (red).

[4] = doses of 0.12 mg/kg, subcutaneous injection; cited from earlier work

Row | Substance | crosslinking of the complete protein, reaction kinetics by HPLC ([1]; 37° C., Tris buffer pH 7.6 (FIG. 4B)) | kinetics of the coupling reaction ([1]; human factor XIIIa) [min] | co-localization with fibronectin after conjugation to the ECM [2] | bioactivity of immobilized IGF-I (cell proliferation) [3] | half-life [4] [h]
1 | IGF-I: Human IGF-I, peptide hormone of 7.6 kDa, 70 amino acids | exceptionally fast and efficient | < 2 | confirmed the co-localization with fibronectin | confirmed; also recorded: preserved | –
2 | Mecasermin: Recombinant human IGF-I | – | – | – | – | 5.8
